Reference: patent publication US20040077835A1

Legend:
[1] = biological target: CCR5 (Homo sapiens (Human)) (UniProt P51681)
[2] = biological target: CCR5 (Homo sapiens (Human)) (UniProt P51681); remark: listed apart in the source
[3] = biological target: CCR5 (Homo sapiens (Human)) (UniProt P51681); remark: listed apart in the source

Mean Relative Potency (IC50 in the envelope-mediated cell fusion assay, relative to AOP-RANTES = 100) (relative to AOP-RANTES = 100) [1] | inhibition of envelope-mediated cell fusion [2] [% inhibition] | Average Infectivity IC50 (cell-free viral infection assay) [3] [nM] | Cell-Fusion Result For Comparison (IC50) [3] [nM] | Substance
2 | > 50 |  |  | NNY-P2Thz-Y3Chg-RANTES (4-68) (from UniProt P13501) (ligand)
4 | > 50 |  |  | NNY-P2Thz-Y3tButA-RANTES (4-68) (from UniProt P13501) (ligand)
7 | > 50 | 0.012 | 0.026 | NNY-P-Y3Chg-RANTES (4-68) (from UniProt P13501) (ligand)
7 | > 50 | 0.014 | 0.038 | NNY-P-Y3tbuA-RANTES (4-68) (from UniProt P13501) (ligand)
